Data taken from patent US12247238B2, “Mogroside biocatalysis methods and products” (The Coca-Cola Company, priority 2019, dated 2025).
Substitutions are numbered along the chain they refer to. In names and notes the source's numbering stands. Entries after “also recorded” stand apart in the source; their conditions may differ.

B1: E804A: A. oryzae β-galactosidase variant, E804A (protein, UniProt Q2UCU3 19-1005, looked up, variant E804A)
Beta-galactosidase A: ASIKHRLNGFTILEHPDPAKRDLLQDIVTWDDKSLFINGERIMLFSGEVHPFRLPVPSLWLDIFHKIRALGFNCVSFYIDWALLEGKPGDYRAEGIFALEPFFDAAKEAGIYLIARPGSYINAEVSGGGFPGWLQRVNGTLRSSDEPFLKATDNYIANAAAAVAKAQITNGGPVILYQPENEYSGGCCGVKYPDADYMQYVMDQARKADIVVPFISNDASPSGHNAPGSGTGAVDIYGHDSYPLGFDCANPSVWPEGKLPDNFRTLHLEQSPSTPYSLLEFQAGAFDPWGGPGFEKCYALVNHEFSRVFYRNDLSFGVSTFNLYMTFGGTNWGNLGHPGGYTSYDYGSPITETRNVTREKYSDIKLLANFVKASPSYLTATPRNLTTGVYTDTSDLAVTPLIGDSPGSFFVVRHTDYSSQESTSYKLKLPTSAGNLTIPQLEGTLSLNGRDSKIHVVDYNVSGTNIIYSTAEVFTWKKFDGNKVLVLYGGPKEHHELAIASKSNVTIIEGSDSGIVSTRKGSSVIIGWDVSSTRRIVQVGDLRVFLLDRNSAYNYWVPELPTEGTSPGFSTSKTTASSIIVKAGYLLRGAHLDGADLHLTADFNATTPIEVIGAPTGAKNLFVNGEKASHTVDKNGIWSSEVKYAAPEIKLPGLKDLDWKYLDTLPEIKSSYDDSAWVSADLPKTKNTHRPLDTPTSLYSSDYGFHTGYLIYRGHFVANGKESEFFIRTQGGSAFGSSVWLNETYLGSWTGADYAMDGNSTYKLSQLESGKNYVITVVIDNLGLDANWTVGEETMKNPRGILSYKLSGQDASAITWKLTGNLGGEDYQDKVRGPLNEGGLYAERQGFHQPQPPSESWESGSPLEGLSKPGIGFYTAQFDLDLPKGWDVPLYFNFGNNTQAARAQLYVNGYQYGKFTGNVGPQTSFPVPEGILNYRGTNYVALSLWALESDGAKLGSFELSYTTPVLTGYGNVESPEQPKYEQRKGAY
B2: E298Q: A. oryzae β-galactosidase variant, E298Q (protein, UniProt Q2UCU3 19-1005, looked up, variant E298Q)
Beta-galactosidase A: B1 Beta-galactosidase A with E280Q, A786E
B3: E298A: A. oryzae β-galactosidase variant, E298A (protein, UniProt Q2UCU3 19-1005, looked up, variant E298A)
Beta-galactosidase A: B1 Beta-galactosidase A with E280A, A786E
B4: E142Q: A. oryzae β-galactosidase variant, E142Q (protein, UniProt Q2UCU3 19-1005, looked up, variant E142Q)
Beta-galactosidase A: B1 Beta-galactosidase A with E124Q, A786E
B5: PpAoBG: same acid lactase/β-Galactosidase enzyme as the Maxilact A4, expressed in a Pichia pistoris system (protein, UniProt Q2UCU3 19-1005, looked up)
Beta-galactosidase A: B1 Beta-galactosidase A with A786E
modifications: expressed in Pichia pastoris
notes: same acid lactase/β-Galactosidase enzyme as the Maxilact A4, expressed in a Pichia pistoris system
B6: ML: acid lactase/β-Galactosidase enzyme preparation from Aspergillus oryzae expressed in Aspergillus niger (protein, UniProt Q2UCU3 19-1005, looked up)
Beta-galactosidase A: B1 Beta-galactosidase A with A786E
modifications: enzyme preparation expressed in Aspergillus niger
B7: S1 RRK 14: RRK loop library variant, positions 204/205/208: NNE (protein, UniProt Q2UCU3 19-1005, looked up, variant G204N C205N V208E)
Beta-galactosidase A: B1 Beta-galactosidase A with G186N, C187N, V190E, A786E
B8: S2 RRK 12: RRK loop library clone, positions 204/205/208: GCV (wildtype) (protein, UniProt Q2UCU3 19-1005, looked up)
Beta-galactosidase A: B1 Beta-galactosidase A with A786E
B9: S2 RRK 16: RRK loop library variant, positions 204/205/208: NGR (protein, UniProt Q2UCU3 19-1005, looked up, variant G204N C205G V208R)
Beta-galactosidase A: B1 Beta-galactosidase A with G186N, C187G, V190R, A786E
B10: S2 RRK 2: RRK loop library variant, positions 204/205/208: GDG (protein, UniProt Q2UCU3 19-1005, looked up, variant C205D V208G)
Beta-galactosidase A: B1 Beta-galactosidase A with C187D, V190G, A786E
B11: S2 RRK 13: RRK loop library variant, positions 204/205/208: EES (protein, UniProt Q2UCU3 19-1005, looked up, variant G204E C205E V208S)
Beta-galactosidase A: B1 Beta-galactosidase A with G186E, C187E, V190S, A786E
B12: D258A, E298A: A. oryzae β-galactosidase double variant D258A, E298A (protein, UniProt Q2UCU3 19-1005, looked up, variant D258A E298A)
Beta-galactosidase A: B1 Beta-galactosidase A with D240A, E280A, A786E

Experiment: Standard mogroside biocatalytic assay, mogroside V substrate
Format: biochemical
Conditions: not given
Procedure: (§1) Standard mogroside biocatalytic assays were performed at 37° C. in 500 μL, volume 50 mM sodium citrate buffer pH 5.6, 10 mM magnesium chloride, 10 mM substrate (typically mogroside V) and 50 μg mL−1 enzyme, and incubated for 24-96 hours. Mogroside glucosidation activity was detected by direct HPLC detection and quantification of mogroside V substrate and mogroside products from filtered reaction supernatant, and quantified by comparison with standard curves based on peak.
(§2) Mogroside compounds HPLC separation and quantification was conducted using a Synergi Hydro-RP column (250 mm×4.6 mm or 150 mm×4.6 mm) with an initial flow rate of 1 mL min−1 and a water: acetonitrile gradient as per below, similar to that described by Zhou et al. (WO 2014/150127). Compounds were detected at 210 nm using diode array detector (Agilent Technologies, USA), and calibration curves established using standard curves from 0.1 to 10 mM.
(§3) Cells expressing enzyme variants grown in buffered minimal medium were induced for 72 hr with 1% methanol (refreshed every 24 hr), the culture supernatant harvested and assayed for standard ONPG activity over 30 minutes and mogroside V activity at pH 5.6, 37° C. for 72 hrs. The resultant activity data (Table 2) identified E200 and D258 as the likely catalytic pair for acid/base and nucleophilic attack of mogroside V by the A. oryzae β-glucosidase enzyme.

Molecule | Siamenoside I production/yield from mogroside V (in words)
B1 | increased ratio of Siamenoside I production; also recorded: increased Siamenoside I yield

Same assay, conditions: Mogroside hydrolysis, 37 C., pH 5.6

Molecule | Initial Rate [µmol/min/mg]
B1 | 3.06
B2 | 1.82
B3 | 2.08
B4 | 2.05

Same assay, conditions: Mogroside hydrolysis, 72 h, 37 C., pH 5.6

Molecule | Reaction Progress [%] | Sia 1 [%]
B1 | 78 | 62
B2 | 89 | 48
B3 | 85 | 52
B4 | 88 | 43

Same assay, conditions: mogV assay, HPLC analysis, 37° C., after 48 hrs

Molecule | Siamenoside I produced [%]
B5 | ~32

Same assay, conditions: product ratio, 72 h, 37 C., pH 5.6

Molecule | Sia:MogIII | Sia:MogIV
B1 | 18.6 | 3.3
B2 | 3.7 | 2.2
B3 | 3.5 | 2.1
B4 | 3.8 | 2.2

Experiment: Reaction distributions (product ratios) of beta-galactosidase preparations
Format: biochemical
Conditions: 12.8 g/L MG-V (10 mM), pH 6.0, 50° C., 96 hrs
Procedure: as §2
Reaction distributions were evaluated for G5160 beta-galactosidase (Sigma), Maxilact A4 beta-galactosidase (DSM) and Pp-Aspergillus oryzae beta-galactosidase.
Using 12.8 g/L MG-V (10 mM) at pH 6.0, 50° C. for 96 hrs reaction time

Mog III [%] | Mog IV [%] | Mog V [%] | Siam I [%] | Molecule
12 | 21 | 24 | 43 | B5
17 | 12 | 22 | 49 | B6

Experiment: RRK loop library variant second pass evaluation, Siamenoside I substrate
Format: biochemical
Conditions: Siamenoside I as substrate
Procedure: (§4) Single transformant colonies from 3.2.2 were inoculated into 2mL BMGY in 48 well-growth blocks and grown overnight at 30° C., 1000 rpm in a benchtop incubator before dilution of cell culture from each well into 2 mL BMM medium an equivalent well in a fresh growth block, to an OD600 nm of 1.0, and growing the induction growth blocks at 30° C., 1000 rpm in a benchtop incubator for 72 hours. The cells were then harvested (5000 g, 10 minutes) and the supernatant from each well concentrated using a 30 kDa cut-off Amicon Ultra 0.5 mL concentrator column (10 000 g, 5 minutes). Enzymatic assays were setup in fresh growth blocks to a total volume of 500 μL, comprising with 50 mM sodium citrate buffer pH 5.6, 10 mM magnesium chloride, 10 mM mogroside V and 50 μL concentrated supernatant (˜35 μg mL−1 protein). Assays were incubated without shaking at 37° C. for 72 hours. 190 μL of reaction was combined with 10 μL 10 mM internal standard (N-Boc-) and 5 μL analyzed by HPLC.
as §2, with “mM. 150 mm column retention times in minutes: mog V 9.5, sia 1 10.6, mog IVa 10.5, mog IV 11.3, mog III 12.6, mogl I 13.2. 250 mm column retention times: mog V 12.3, sia 1 13.2, mog IVa 13.5, mog IV 14.1, mog III 15.3, mog II 16.2.” for “mM.”
(§5) 48 variants were selected based on Siamenoside I yields of >70% by peak area for a second pass evaluation. The cell lines were regrown and assayed with both mogroside V and Siamenoside I as substrates, independently.

Molecule | Siamenoside I Substrate Evaluation % Peak Area Siamenoside I Left After 72 hr [% Peak Area]
B7 | 84
B8 | 35
B9 | 72
B10 | 78
B11 | 73

Experiment: RRK loop library variant screening, mogroside V substrate
Format: biochemical
Conditions: second pass evaluation, 10 mM mogroside V, pH 5.6, 37° C., 72 hours
Procedure: as §4
as §2, with “mM. 150 mm column retention times in minutes: mog V 9.5, sia 1 10.6, mog IVa 10.5, mog IV 11.3, mog III 12.6, mogl I 13.2. 250 mm column retention times: mog V 12.3, sia 1 13.2, mog IVa 13.5, mog IV 14.1, mog III 15.3, mog II 16.2.” for “mM.”
Therefore, variants showing improved function were chosen if they surpassed a yield value >70% by peak area during this first pass evolution.
as §5

Molecule | % Peak Area Siamenoside I [% Peak Area] | Reaction Progress
B7 | 74 | 75
B8 | 66 | 89
B9 | 72 | 87
B10 | 76 | 87
B11 | 72 | 88

Experiment: β-galactosidase ONPG activity assay
Format: biochemical
Conditions: oNPG substrate, over 30 minutes
Procedure: Standard β-galactosidase assays were performed at room temperature using o-nitrophenyl-β-D-galactopyranoside (ONPG, Sigma) as a substrate in […] with detection of o-nitrophenol release at 420 nm (UV-Spectra Max Spectrophotometer, Molecular Devices, USA). A typical reaction contained 50 mM sodium citrate buffer pH 5.6, 10 mM magnesium chloride and 100 mM potassium chloride with 2 mM ONPG and the desired amount of enzyme (usually […]). Partially purified AoBG (Sigma G5160, USA) was used as a positive control at a final concentration of 1 U mL−1. Vmax was calculated using the SpectraMax Plus software (Molecular Devices, USA) and when required kinetics were determined by varying the concentration of substrate and kinetic determinants calculated using Hyper™ (J. S. Easterby, Liverpool University).
as §3

oNPG | Molecule
34.7 ± 0.4 mAu/min/mg | B1
5.2 ± 0.1 mAu/min/mg | B2
INACTIVE | B12
6.3 ± 0.1 mAu/min/mg | B3
34.6 ± 0.5 mAu/min/mg | B4

Experiment: Mogroside biocatalytic assay, equimolar MogV:SiaI substrate
Format: biochemical
Conditions: comparison of wildtype and variant
Procedure: as §1, §2

Molecule | effectiveness of Siamenoside I as a substrate in the presence of mogroside V (in words)
B1 | reducing the effectiveness of Siamenoside I as a substrate
